According to the supplement of paper PMC7877785:
± gives the uncertainty stated by the source.

Experiment: self-splicing fitness, log relative to wild type (ln ratio); higher = more splicing; Tetrahymena group I intron in knt gene, E. coli kanamycin selection, DiMSum; sequences stand for … in CUCUCU…GGAGGGAAAAGUUAUCAGGCAUGCACCUGGUAGCUAGUCUUUAAACCAAUAGAUUGCAUCGGUUUAAAAGGCAAGACCGUCAAAUUGCGGGAAAGGGGUCAACAGCCGUUCAGUACCAAGUCUCAGGGGAAACUUUGAGAUGGCCUUGCAAAGGGUAUGGUAAUAAGCUGACGGACAUGGUCCUAACCACGCAGCCAAGUCCUAAGUCAACAGAUCUUCUGUUGAUAUGGAUGCAGUUCACAGACUAAAUGUCGGUCGGGGAAGAUGUAUUCUUCUCAUAAGAUAUAGUCGGACCUCUCCUUAAUGGGAGCUAGCGGAUGAAGUGAUGCAACACUGGAGCCGCUGGGAACUAAUUUGUAUGCGAAAGUAUAUUGAUUAGUUUUGGAGUACUCGUGGUCG
How it was run: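 Library with all eight P1ex-region intron nucleotides randomised, intron inside the knt kanamycin-resistance gene on pET-22b(+), in E. coli BL21(DE3). Cells grew overnight at 37°C or 30°C on LB agar with or without 25 μg/mL kanamycin (plus 100 μg/mL carbenicillin, 50 μM IPTG, 0.2% rhamnose), in six replicate transformations. Pooled colonies were amplicon-sequenced on Illumina HiSeq 2500. DiMSum fitness is the error-weighted combination of wild-type-normalised replicate fold changes, kanamycin versus none.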

Row | Sequence | self-splicing fitness (ln) (30 °C) | self-splicing fitness (ln) (37 °C)
1 | AGUGAGCAAUAUUACGAUCA | -1.64 ± 0.13 | -0.675 ± 0.16
2 | AGUGAGCAAUAUUACGAUGA | -4.11 ± 0.39 | -2.24 ± 0.3
3 | AGUGAGCAAUAUUACGAUUC | -2.97 ± 0.28 | -1.27 ± 0.33
4 | AGUGAGCAAUAUUACGCAAG | -2.68 ± 0.22 | -2.98 ± 0.26
5 | AGUGAGCAAUAUUACGCAGG |  | -2.65 ± 0.48
6 | AGUGAGCAAUAUUACGCUCA |  | -2.13 ± 0.25
7 | AGUGAGCAAUAUUACGGCAA | -2.12 ± 0.21 | -0.889 ± 0.2
8 | AGUGAGCAAUAUUACGGGCG | -1.04 ± 0.19 | -0.922 ± 0.27
9 | AGUGAGCAAUAUUACGGUCA | -2.16 ± 0.19 | -0.354 ± 0.19
10 | AGUGAGCAAUAUUACGUCCA | -2.89 ± 0.36 | -1 ± 0.27
11 | AGUGAGCAAUAUUACGUCUG | -2.84 ± 0.34 | -2.07 ± 0.38
12 | AGUGAGCAAUAUUACGUUAA | -2.56 ± 0.31 | -1.57 ± 0.25
13 | AGUGAGCAAUAUUACGUUAU | -3.13 ± 0.17 | -3.08 ± 0.27
14 | AGUGAGCAAUAUUACGUUGU | -4.07 ± 0.19 | -1.78 ± 0.14
15 | AGUUAGCAAUAUUACGAAGC | -3.59 ± 0.48 | -1.98 ± 0.48
16 | AGUUAGCAAUAUUACGAAGU | -2.91 ± 0.17 | -1.47 ± 0.15
17 | AGUUAGCAAUAUUACGACGA | -0.101 ± 0.18 | -0.368 ± 0.14
18 | AGUUAGCAAUAUUACGAGCG | -0.12 ± 0.1 | 0.237 ± 0.11
19 | AGUUAGCAAUAUUACGAGCU | -1.97 ± 0.15 | -0.796 ± 0.17
20 | AGUUAGCAAUAUUACGAGGA | -2.32 ± 0.26 | -2.43 ± 0.25
21 | AGUUAGCAAUAUUACGAUAC | -2.6 ± 0.25 | -1.51 ± 0.24
22 | AGUUAGCAAUAUUACGAUAG | -3.19 ± 0.29 | -1.77 ± 0.29
23 | AGUUAGCAAUAUUACGAUCA | -0.843 ± 0.13 | 0.619 ± 0.12
24 | AGUUAGCAAUAUUACGCCCC | -0.473 ± 0.23 | 
25 | AGUUAGCAAUAUUACGCCCG | -1.52 ± 0.44 | 0.364 ± 0.45

Row | Sequence | self-splicing fitness (ln) (30 °C) | self-splicing fitness (ln) (37 °C)
26 | AGUUAGCAAUAUUACGCGCA | -0.182 ± 0.14 | 0.341 ± 0.21
27 | AGUUAGCAAUAUUACGCGGU | -2.58 ± 0.14 | -1.93 ± 0.18
28 | AGUUAGCAAUAUUACGCUAA | -3.11 ± 0.43 | -2.29 ± 0.41
29 | AGUUAGCAAUAUUACGGAAC |  | -2.72 ± 0.38
30 | AGUUAGCAAUAUUACGGCAU | -0.297 ± 0.063 | -0.161 ± 0.085
31 | AGUUAGCAAUAUUACGGCCG | -0.855 ± 0.21 | -0.628 ± 0.3
32 | AGUUAGCAAUAUUACGGCUG | -0.983 ± 0.085 | -0.309 ± 0.11
33 | AGUUAGCAAUAUUACGGGAU | -3.18 ± 0.26 | -1.46 ± 0.22
34 | AGUUAGCAAUAUUACGGUUG | -3.09 ± 0.24 | -1.99 ± 0.22
35 | AGUUAGCAAUAUUACGUACA | -1.06 ± 0.09 | -0.266 ± 0.12
36 | AGUUAGCAAUAUUACGUAGA | -3.12 ± 0.14 | -1.59 ± 0.14
37 | AGUUAGCAAUAUUACGUAUA | -3.01 ± 0.19 | -1.57 ± 0.16
38 | AGUUAGCAAUAUUACGUCAC |  | -0.825 ± 0.31
39 | AGUUAGCAAUAUUACGUCUA | -0.594 ± 0.12 | -0.0617 ± 0.1
40 | AGUUAGCAAUAUUACGUGAA | -2.78 ± 0.15 | -2.31 ± 0.2
41 | AGUUAGCAAUAUUACGUGAG | -1.53 ± 0.12 | -1.86 ± 0.14
42 | AGUUAGCAAUAUUACGUUAA | -3.56 ± 0.38 | -1.48 ± 0.26
43 | AGUUAGCAAUAUUACGUUAG | -3.45 ± 0.23 | -2.72 ± 0.3
44 | AGUUAGCAAUAUUACGUUGG | -2.67 ± 0.19 | -2.3 ± 0.21
45 | AUAAAGCAAUAUUACGAAUU | -1.23 ± 0.064 | -0.731 ± 0.089
46 | AUAAAGCAAUAUUACGACAU | 0.424 ± 0.012 | 0.344 ± 0.032
47 | AUAAAGCAAUAUUACGACUA | 0.277 ± 0.083 | 0.129 ± 0.1
48 | AUAAAGCAAUAUUACGACUU | 0.0576 ± 0.088 | 0.686 ± 0.13
49 | AUAAAGCAAUAUUACGAGGC | -3.29 ± 0.17 | -2.7 ± 0.32
50 | AUAAAGCAAUAUUACGAGUG | -2.03 ± 0.1 | -1.16 ± 0.12

Row | Sequence | self-splicing fitness (ln) (30 °C) | self-splicing fitness (ln) (37 °C)
51 | AUAAAGCAAUAUUACGAUGA | -0.326 ± 0.083 | 0.153 ± 0.12
52 | AUAAAGCAAUAUUACGAUUU | 0.496 ± 0.082 | 0.827 ± 0.1
53 | AUAAAGCAAUAUUACGCCAG | -0.993 ± 0.12 | -0.785 ± 0.16
54 | AUAAAGCAAUAUUACGCCAU | -0.694 ± 0.095 | -0.176 ± 0.14
55 | AUAAAGCAAUAUUACGCCUU | -0.274 ± 0.094 | 0.0912 ± 0.12
56 | AUAAAGCAAUAUUACGCUUG | -0.77 ± 0.082 | -0.368 ± 0.11
57 | AUAAAGCAAUAUUACGGAAC | -2.45 ± 0.26 | -0.934 ± 0.19
58 | AUAAAGCAAUAUUACGGAGC | -2.79 ± 0.2 | -2.21 ± 0.22
59 | AUAAAGCAAUAUUACGGCAG | -0.699 ± 0.092 | -0.0772 ± 0.13
60 | AUAAAGCAAUAUUACGGCGA | 0.447 ± 0.1 | 1.03 ± 0.14
61 | AUAAAGCAAUAUUACGGGAC | -1.72 ± 0.1 | -2.4 ± 0.16
62 | AUAAAGCAAUAUUACGGGAU | -0.81 ± 0.055 | -0.671 ± 0.083
63 | AUAAAGCAAUAUUACGGGUG | -1.03 ± 0.082 | -0.259 ± 0.094
64 | AUAAAGCAAUAUUACGGGUU | -2.17 ± 0.09 | -1.17 ± 0.098
65 | AUAAAGCAAUAUUACGUACA | -0.00533 ± 0.067 | 0.315 ± 0.098
66 | AUAAAGCAAUAUUACGUAGA | -2.36 ± 0.11 | -0.832 ± 0.12
67 | AUAAAGCAAUAUUACGUGUA | -1.55 ± 0.069 | -0.325 ± 0.089
68 | AUAAAGCAAUAUUACGUUAC | -2.55 ± 0.13 | -0.574 ± 0.12
69 | AUAAAGCAAUAUUACGUUUU | -2.37 ± 0.097 | -1.11 ± 0.12
70 | AUACAGCAAUAUUACGACCU | 0.331 ± 0.084 | 0.122 ± 0.094
71 | AUACAGCAAUAUUACGACUA | -0.177 ± 0.1 | -0.541 ± 0.089
72 | AUACAGCAAUAUUACGAGCG | -1.63 ± 0.096 | -0.55 ± 0.1
73 | AUACAGCAAUAUUACGAGGC | -2.99 ± 0.19 | -2.23 ± 0.2
74 | AUACAGCAAUAUUACGAUAA | -1.37 ± 0.099 | -0.374 ± 0.11
75 | AUACAGCAAUAUUACGAUCG | -0.733 ± 0.071 | -0.839 ± 0.097

Row | Sequence | self-splicing fitness (ln) (30 °C) | self-splicing fitness (ln) (37 °C)
76 | AUACAGCAAUAUUACGCCCG | -0.847 ± 0.17 | -0.634 ± 0.25
77 | AUACAGCAAUAUUACGCCUC | -2.79 ± 0.2 | -1.86 ± 0.17
78 | AUACAGCAAUAUUACGCGUA | -1.76 ± 0.11 | -0.809 ± 0.097
79 | AUACAGCAAUAUUACGCUAU | -3.03 ± 0.11 | -1.29 ± 0.087
80 | AUACAGCAAUAUUACGGCCG | -1.33 ± 0.16 | -1.14 ± 0.23
81 | AUACAGCAAUAUUACGGCUC | -0.178 ± 0.075 | 0.157 ± 0.1
82 | AUACAGCAAUAUUACGGGUA | -1.24 ± 0.078 | -0.645 ± 0.078
83 | AUACAGCAAUAUUACGGGUG | -1.63 ± 0.065 | -1 ± 0.073
84 | AUACAGCAAUAUUACGGGUU | -1.9 ± 0.071 | -1.05 ± 0.077
85 | AUACAGCAAUAUUACGUAUU | -3.18 ± 0.16 | -2.54 ± 0.2
86 | AUACAGCAAUAUUACGUCCU | -0.382 ± 0.073 | 1.06 ± 0.096
87 | AUAGAGCAAUAUUACGAUAC | -0.998 ± 0.12 | -0.0688 ± 0.19
88 | AUAGAGCAAUAUUACGAUCU | -0.131 ± 0.12 | -0.042 ± 0.17
89 | AUAGAGCAAUAUUACGAUGG | -2.76 ± 0.21 | -2.02 ± 0.31
90 | AUAGAGCAAUAUUACGAUUG | -3.46 ± 0.2 | -1.33 ± 0.15
91 | AUAGAGCAAUAUUACGCAAC |  | -1.78 ± 0.41
92 | AUAGAGCAAUAUUACGCAGU | -1.73 ± 0.16 | -0.369 ± 0.19
93 | AUAGAGCAAUAUUACGCAUU | -1.19 ± 0.096 | -0.296 ± 0.1
94 | AUAGAGCAAUAUUACGCCUA | -0.415 ± 0.11 | 0.144 ± 0.15
95 | AUAGAGCAAUAUUACGCCUC | -1.52 ± 0.24 | -0.831 ± 0.5
96 | AUAGAGCAAUAUUACGCGGC | -3.33 ± 0.35 | -1.78 ± 0.25
97 | AUAGAGCAAUAUUACGGACU | -1.15 ± 0.13 | -1.65 ± 0.23
